System: MS2 coat protein
Test: apparent KD of MS2 coat protein; higher = weaker reporter binding
Conditions: Eterna round: R107
Outline: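 Normalised binding curves from single clusters were fitted, and the median fit for each design is given as apparent KD. The clusters held designed RNA switches transcribed on-chip from Illumina sequencing clusters. These were titrated with SNAP-549-labelled MS2 coat protein (twofold steps from 0.7 or 1.5 nM to 3 µM, 0.8–1.5 h to 10–20 min per step) in 100 mM Tris-HCl pH 7.5, 80 mM KCl, 4 mM MgCl2, without or with constant ligand.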

[1] = input ligand: theophylline 20 uM
[2] = input ligand: theophylline 2 mM
[3] = input ligand: tryptophan 2.4 mM

| Sequence | apparent KD of MS2 coat protein (input ligand: arginine 13.2 mM) | apparent KD of MS2 coat protein (input ligand: none) | apparent KD of MS2 coat protein [1] | apparent KD of MS2 coat protein [2] | apparent KD of MS2 coat protein [3] |
| --- | --- | --- | --- | --- | --- |
| GCUAGGUCAUCGGCCGCCACUAACGAUGGCUCCGACAUGAGGAUCACCCAUGUGCCACUUGCGCAUAGGACCGGGAUGACCUAGC [SSTB NP+V+V2 #1] | 17.7 nM | 15 nM | 24.3 nM | 17.2 nM | 11.5 nM |
| GCUGAACAUGAGGAUCACCCAUGUCCGGAUACCAGCGGACCUCAUCGCCCUUGGCAGCCGAACCAACAGCUUGUGGUGUUCACUC [theeternabot_sameState_MS2_Theo_A_10] | 32.2 nM |  | 58.2 nM |  | 37.2 nM |
| GCUGUAAGUGCAGAUACCAGCAUGUUAUAUUUCUAAUGACAUGAGGAUCACCCAUGUAAAUGCCCUUGGCAGCUGCACUUACAGC [SSTHB #6] | 15.6 nM |  | 21.4 nM |  | 18.7 nM |
| GCUGUACCAUGAAGGAGCGUCGUUGAUUGAGAAUACACAUGAGGAUCACCCAUGUUUUUAUGACAGGUAGGUCGCAUGGUACAGC [SSAB #16] | 13.8 nM | 12.9 nM | 25.1 nM | 18.9 nM | 12.1 nM |
| GCUUGGGUGGCACAGCACUGGCAGUGCGAUACCAGCACGGUAACGUGCCCUUGGCAGCGCACAUGAGGAUCACCCAUGUGGUGCG [#1 Exclusion - Theophylline A Attempt #26 (HarryS)] | 18.8 nM | 24.4 nM | 66.9 nM | 275 nM | 26 nM |
| GCUUGGGUGGCACGGCCCUGGCGGUGCGAUACCAGCACGGUAACGUGCCCUUGGCAGCGCACAUGAGGAUCACCCAUGUGGUGCG [#1 Exclusion - Theophylline A Attempt #24 (HarryS)] | 13.1 nM | 15.6 nM | 21.9 nM | 185 nM | 13.7 nM |
| GGACCAUGGAGCGAUACCAGCUUGAGUGUACUGGCCAGGUACAUGAGGAUCACCCAUGUAAGCCCUUGGCAGCGCUCCAUGGUCC [#1 Exclusion - Theophylline B Attempt #25 (HarryS)] | 8.38 nM | 9.95 nM | 14.7 nM | 30.8 nM | 12.3 nM |
| GGACUAACCUGAAGGAGCGACGCGCAGAAACUGCAAUUUCCUCCACACGAGGAUCACCCGUGUCAGGUAGGUCGCAGGUUAGUCG [ArgBX 29] | 13.1 nM | 14.1 nM | 18.3 nM | 15.4 nM | 15.3 nM |
| GGACUAACUGGAAGGAGCGACACGCAGAAACUGCAAUUUCCUCCACACGAGGAUCACCCGUGUCAGGUAGGUCGCCAGUUAGUCG [ArgBX 29] | 31.3 nM | 39.1 nM | 52 nM | 57 nM | 40.9 nM |
| GGAGGUACCCGAAGGAGCGACAUGAGGAUCACCCAUGUCUCCCGUUAUGGGAGUUCCUUAGGUCAGGUAGGUCGCGGGUACCUCC [#1 Exclusion - Arginine B Attempt #1 (Inspired by Omei)] | 92.7 nM | 124 nM | 162 nM | 128 nM | 109 nM |
| GGAGUAGGAAACUAUUCCAAUCCUCGUGAACGAGGACCGGUACGGCCGCCACUCGAUAAAUAAAUACAUGAGGAUCACCCAUGUU [Ex Tryptophan A 23] | 38 nM |  | 71.4 nM | 82.1 nM |  |
| GGAUAGGACACGGCCGCCACUACCUAGGAUACUAGAAACAUUUCCUCACAUGAGGAUCACCCAUGUAGGACCGGGUGUCCUAUCG | 106 nM |  | 284 nM | 351 nM |  |
| GGAUGAAACUGAAGGAGCGAGAUCACAAGAUUGGGUCUAACAUGAGGAUCACCCAUGUAAUCUCAGGUAGGUCGCAGUGUCCCUU [Exclusion Arginine B GF 12] | 33 nM | 26.6 nM | 42 nM | 43.5 nM | 31.6 nM |
| GGAUGCGGCACGGCCGCCACUGCGGUGGUGUGACAUGAGGAUCACCCAUGUUGUCAUGCGGCCCUUAGGACCGGGUGGCGUGUCC [#1 Exclusion - Tryptophan B Attempt #19 (HarryS)] | 37.2 nM |  | 57.4 nM | 56.3 nM |  |
| GGAUGGAACUCGGCCGCCACUGGUGAUCCUAAUGUACAUGAGGAUCACCCAUGUACAUGAGAAGAUAGGACCGGGAGAUAAGGGA [Tryptophan B V4 (+4G)] | 19.9 nM | 19.3 nM | 24.3 nM | 26.3 nM | 20.7 nM |
| GGCACCAGGAGAAGGAGCGUGAAGACAUGAGGAUCACCCAUGUAGAGGCCCGUACAGGGUUCGCAGGUAGGUCGCUCCUGGUGCC [#1 Same State - Arginine B Attempt #12 (HarryS)] | 19.3 nM | 18.4 nM | 27.3 nM | 22.6 nM | 18.8 nM |
| GGCACCAGGAGAAGGAGCGUGAAGACAUGAGGAUCACCCAUGUAGAGGCGCCGACGGCGUUCGCAGGUAGGUCGCUCCUGGUGCC [#1 Same State - Arginine B Attempt #16 (HarryS)] | 20.9 nM | 21 nM | 32.3 nM | 23.5 nM | 29.3 nM |
| GGCCCUGCGAGCGCUCGCAGGGCCGCGGAUACCAGCGAGGUCCAUCGCCCUUGGCAGCCGAACAUGAGGAUCACCCAUGUCGGUC [#1 Same State - Theophylline A Attempt #11 (HarryS)] | 11.4 nM | 11.6 nM | 18.7 nM | 28.1 nM | 10.7 nM |
| GGCUGUCAUAGGAGGUGAAAUAUACUCGAAGGAGCGUCAUAGUAGGCAGGUAGGUCGCGAGACAUGAGGAUCACCCAUGUAGAGA [yyumullin] | 38.9 nM | 53.9 nM | 162 nM | 67.7 nM | 56.4 nM |
| GGGCAAGAGGGAAGGAGCGUUAGCUGAGUCACAUGAGGAUCACCCAUGUCGCACGUAGUAUGACAGGUAGGUCGCCCUCUACCCU [SS-ArgB15] | 18 nM | 18.1 nM | 22.1 nM | 21.6 nM | 18.9 nM |
| GGGCCCGGGCCGCGCGCGGCCCGGGCCCAACGAGGACCGGUACGGCCGCCACUCGAACGAGUGGGUACAUGAGGAUCACCCAUGU [Aaa] | 25.7 nM | 27 nM | 41.8 nM | 45 nM | 33.3 nM |
| GGGUAAGAUCCGGAUACCAGCGAACAUGAGGAUCACCCAUGUGAAAUAAGAUAGAAUAAACGCCCUUGGCAGCCGAAAUAGAGUU [Same State Theophylline B GF 3] | 41.3 nM |  | 81.9 nM |  | 88.9 nM |
| GGGUGGUAGGCGGCCGCCACUGAUUUUCAUUUAUAGAUGACAUGAGGAUCACCCAUGUUUAUGUGCAGGACCGGGCCUGCUGUGG [aaaT] | 102 nM | 68 nM | 130 nM | 137 nM | 78.2 nM |
| GGUCUCUGGAGCGAUACCAGCUUGAUCGUACUAGCCUGGUACAUGAGGAUCACCCAUGUAAGCCCUUGGCAGCGCUCCAGAGACC [#1 Exclusion - Theophylline B Attempt #8 (HarryS)] | 11.8 nM | 12.7 nM | 15.8 nM | 21.4 nM | 12.1 nM |
| GGUGGCGUGACGGAUACCAGCCACCACCGCAAGACCACAUGAGGAUCACCCAUGUUGGGUGGCCCUUGGCAGCUGUCGUGCGGCG [#1 Same State - Theophylline B Attempt #19 (HarryS)] | 15 nM | 213 nM | 331 nM | 475 nM | 110 nM |
| GGUGGCUGGAUCGAUACCAGCCACCACCGAUAGACCACAUGAGGAUCACCCAUGUUGGGUGGCCCUUGGCAGCGGUCCAGCUGCC [#1 Same State - Theophylline B Attempt #5 (HarryS)] | 78.8 nM | 587 nM | 1010 nM | 1240 nM | 851 nM |
| GUAAGACAUGAGGAUCACCCAUGUGUCGAUACCAGCCCUGCCUCUGGCCCUUGGCAGCGACUCGCACACCUCGCACUGCACAAGU [theeternabot_sameState_MS2_Theo_A_13] | 42.6 nM |  | 59.5 nM |  | 49 nM |
| GUAAUUUAUUGAAGGAGCGUCGAAAAUGGGUAAACAUGAGGAUCACCCAUGUAAAGGGAACGACAGGUAGGUCGCAAUAGGUUAC [AstromonsSSArgB#29] | 103 nM | 192 nM | 252 nM | 285 nM | 197 nM |
| GUACAUGAGGAUCACCCAUGUAUAGUUGAAGGAGCGACCAGAGGGUCAGGUAGGUCGCAGCACAUGGUGUAAACCCGUGUAUGCC [#1 Exclusion - Arginine A Attempt #22 (Inspired by Pi)] | 29.6 nM | 29.3 nM | 34.6 nM | 28.9 nM | 26.8 nM |
